The data set in a line: Drug-release assay of nanoparticle-conjugated linker-payloads under cleavage conditions (Cat-B, redox-responsive or pH-sensitive cleaving study), RP-HPLC. In kind it is in vitro ADME. The conditions noted are these: linker-payload conjugated to DBCO-functionalized silica nanoparticle, 37° C., 24 hours. The procedure:
To assess the drug releasing profile of exemplary linker-drug conjugates, the linker-drug conjugates were each conjugated to a DBCO-functionalized ultrasmall silica nanoparticle via a click chemistry reaction between the azide groups on the linker-drug conjugate precursors and the dibenzocyclooctyne (DBCO) groups of the nanoparticles. The resulting drug-nanoparticle-conjugates were then incubated under the desired releasing conditions for release kinetics tests.
The amount of released drugs vs non-released drugs was measured using reverse phase HPLC by analyzing the area under curve (AUC) (FIG. 10A and FIG. 10B).
General Method: A Waters Xbridge Peptide BEH C18 column with 4.6 mm×50 mm dimensions, a particle size of 5 μm, and a pore size of 300 A was used (part number 186003622). Acetonitrile (VWR HiPerSolv Chromanorm, UHPLC Grade) was used as received without further preparation, […] trifluoroacetic acid in deionized water was prepared by adding 1 mL of trifluoroacetic acid (HPLC grade, Millipore-Sigma) into 999 mL 18.2 MΩ·cm deionized water that was generated using an IQ7000 Millipore deionized water system and passed through a 0.2 μm filter before use. The seal wash used for the system was composed of 90% 18.2 MΩ·cm deionized water and 10% methanol (HPLC grade, VWR). The injection needle was washed using a mixture of 25 vol % 18.2 MΩ·cm deionized water, 25 vol % acetonitrile, 25 vol % methanol, and 25 vol % 2-propanol. Samples were prepared in a concentration range of 0.25 to 2 μM and the injection volume ranges from 60 μL to 10 μL, respectively. Higher sample concentration can be used if detector signal is low. Vials used for all injections are fresh Waters Total Recovery vials with screw caps that have pre-slit PTFE septa (part number 186000385C).
Method for Protease-cleavable and Redox-responsive Linkers: Before any sample injections were started, the PDA lamp was turned on and allowed to warm up for at least 30 minutes. The system and column were equilibrated with 95% 0.01% TFA in deionized water, 5% acetonitrile for at least 10 minutes at a flow rate of 1.0 mL/min after the PDA lamp had warmed up. Two blank injections, with injection volumes of 10 μL containing only 18.2 MΩ·cm deionized water, were performed before the injection of any samples for analysis. The gradient used to elute protease-cleavable and redox-sensitive linkers conjugated to hybrid silica nanoparticles, and their components began at 95% 0.01% TFA in deionized water and 5% acetonitrile and linearly changed to 15% 0.01% TFA in deionized water, 85% acetonitrile over 8 minutes. Acetonitrile composition was increased to 95% over an additional minute and held at 95% for an additional 2 minutes to ensure that any strongly retained compounds are eluted. The composition of the solvent was then changed back to the starting composition of the gradient over an additional minute and allowed to equilibrate for 3 minutes before another injection began. Between sample injections a blank injection was run to ensure that no carryover occurred.
Method for pH-sensitive Linkers: Before any sample injections were started, the PDA lamp was turned on and allowed to warm up for at least 30 minutes. A gradient of pure deionized water and acetonitrile was used, all other consumables including column and vials were the same as for the method to purify Cat-B sensitive and redox-responsive linkers elaborated on above. Briefly the gradient composition began at 95% deionized water and 5% acetonitrile at a flow rate of 1.0 mL/min (not changed throughout the method). The composition was changed from this starting composition to 15% deionized water and 85% acetonitrile over a 12-minute period, during which the retained drug-linkers, released drug, free drug linker, and any other impurities eluted. At the 12-minute mark the composition was rapidly changed to 5% deionized water and 95% acetonitrile over the course of one minute. […]

This is an account of results in patent publication US20230241243A1, “CARRIER PARTICLE-DRUG CONJUGATES, SELF-IMMOLATIVE LINKERS, AND USES THEREOF” (priority 2020, published 2023).

Molecules are shown by their SMILES.

`CC[C@@]1(O)C(=O)OCc2c1cc1n(c2=O)Cc2c-1nc1cc(F)c(C)c3c1c2[C@@H](NC(=O)C(O)c1ccc(NC(=O)[C@H](CCCCN)NC(=O)[C@H](Cc2ccccc2)NC(=O)CCOCCOCCOCCOCCOCCOCCN=[N+]=[N-])cc1)CC3` (single isomer, unassigned) [Example 29-Peak 1]: the “% of Payload Release in 24 Hours Under Cleavage Conditions” value (“% of Payload Release” for short) is “+++ (‘+++’ indicates 51-75% release)”. Regarding `CC[C@@]1(O)C(=O)OCc2c1cc1n(c2=O)Cc2c-1nc1cc(F)c(C)c3c1c2[C@@H](NC(=O)C(O)c1ccc(NC(=O)[C@H](CCCCN)NC(=O)[C@H](Cc2ccccc2)NC(=O)CCOCCOCCOCCOCCOCCOCCN=[N+]=[N-])cc1)CC3` (single isomer, unassigned) [Example 29-Peak 2], the “% of Payload Release” value is reported as “++ (‘++’ indicates 26-50% release)”. Consider `CC[C@@]1(O)C(=O)OCc2c1cc1n(c2=O)Cc2c-1nc1cc(F)c(C)c3c1c2[C@@H](NC(=O)OCc1ccc(NC(=O)[C@H](CCCNC(N)=O)NC(=O)[C@@H](NC(=O)CCOCCOCCOCCOCCOCCN=[N+]=[N-])C(C)C)cc1)CC3` [Example 9, 4-((20S,23S)-1-azido-20-isopropyl-18,21-dioxo-23-(3-ureidopropyl)-3,6,9,12,15-pentaoxa-19,22-diazatetracosan-24-amido)benzyl ((1S,9S)-9-ethyl-5-fluoro-9-hydroxy-4-methyl-10,13-dioxo-2,3,9,10,13,15-hexahydro-1H,12H-benzo[de]pyrano[3′,4′:6,7]indolizino[1,2-b]quinolin-1-yl)carbamate], for which the “% of Payload Release” value was “++++ (‘++++’ indicates 76-100% release)”. With `CC[C@@]1(O)C(=O)OCc2c1cc1n(c2=O)Cc2c-1nc1cc(F)c(C)c3c1c2[C@@H](NC(=O)OCc1ccc(NC(=O)[C@H](CCCNC(N)=O)NC(=O)[C@@H](NC(=O)CCOCCOCCOCCOCCOCCOCCOCCOCCOCCOCCOCCN=[N+]=[N-])C(C)C)cc1)CC3` [Example 11, 4-((38S,41S)-1-azido-38-isopropyl-36,39-dioxo-41-(3-ureidopropyl)-3,6,9,12,15,18,21,24,27,30,33-undecaoxa-37,40-diazadotetracontan-42-amido)benzyl ((1S,9S)-9-ethyl-5-fluoro-9-hydroxy-4-methyl-10,13-dioxo-2,3,9,10,13,15-hexahydro-1H,12H-benzo[de]pyrano[3′,4′:6,7]indolizino[1,2-b]quinolin-1-yl)carbamate] the entry was “+++ (‘+++’ indicates 51-75% release)”; with `CCc1c2c(nc3ccc(OC(C(=O)OC)c4ccc(NC(=O)[C@H](CCCNC(N)=O)NC(=O)[C@@H](NC(=O)CCOCCOCCOCCOCCOCCN=[N+]=[N-])C(C)C)cc4)cc13)-c1cc3c(c(=O)n1C2)COC(=O)[C@]3(O)CC` (stereo partly drawn) [Example 12, methyl 2-(4-((20S,23S)-1-azido-20-isopropyl-18,21-dioxo-23-(3-ureidopropyl)-3,6,9,12,15-pentaoxa-19,22-diazatetracosan-24-amido)phenyl)-2-(((S)-4,11-diethyl-4-hydroxy-3,14-dioxo-3,4,12,14-tetrahydro-1H-pyrano[3′,4′:6,7]indolizino[1,2-b]quinolin-9-yl)oxy)acetate], “+ (‘+’ indicates 5-25% release)”; with `CCc1c2c(nc3ccc(OC(C(=O)OC)c4ccc(NC(=O)[C@H](CCCNC(N)=O)NC(=O)[C@@H](NC(=O)CCOCCOCCOCCOCCOCCOCCOCCOCCOCCN=[N+]=[N-])C(C)C)cc4)cc13)-c1cc3c(c(=O)n1C2)COC(=O)[C@]3(O)CC` (stereo partly drawn) [Example 13-R isomer, Methyl 2-(4-((32S,35S)-1-azido-32-isopropyl-30,33-dioxo-35-(3-ureidopropyl)-3,6,9,12,15,18,21,24,27-nonaoxa-31,34-diazahexatriacontan-36-amido)phenyl)-2-(((S)-4,11-diethyl-4-hydroxy-3,14-dioxo-3,4,12,14-tetrahydro-1H-pyrano[3′,4′:6,7]indolizino[1,2-b]quinolin-9-yl)oxy)acetate], “+ (‘+’ indicates 5-25% release)”. In the case of `CCc1c2c(nc3ccc(OC(C(=O)OC)c4ccc(NC(=O)[C@H](CCCNC(N)=O)NC(=O)[C@@H](NC(=O)CCOCCOCCOCCOCCOCCOCCOCCOCCOCCOCCOCCN=[N+]=[N-])C(C)C)cc4)cc13)-c1cc3c(c(=O)n1C2)COC(=O)[C@]3(O)CC` (stereo partly drawn) [Example 14-R isomer, Methyl 2-(4-((38S,41S)-1-azido-38-isopropyl-36,39-dioxo-41-(3-ureidopropyl)-3,6,9,12,15,18,21,24,27,30,33-undecaoxa-37,40-diazadotetracontan-42-amido)phenyl)-2-(((S)-4,11-diethyl-4-hydroxy-3,14-dioxo-3,4,12,14-tetrahydro-1H-pyrano[3′,4′:6,7]indolizino[1,2-b]quinolin-9-yl)oxy)acetate], the “% of Payload Release” value is recorded as “+ (‘+’ indicates 5-25% release)”. Regarding `CCc1c2c(nc3ccc(OCCCNC(=O)OCc4ccc(NC(=O)[C@H](CCCNC(N)=O)NC(=O)[C@@H](NC(=O)CCOCCOCCOCCOCCOCCN=[N+]=[N-])C(C)C)cc4)cc13)-c1cc3c(c(=O)n1C2)COC(=O)[C@]3(O)CC` [Example 15, 4-((20S,23S)-1-azido-20-isopropyl-18,21-dioxo-23-(3-ureidopropyl)-3,6,9,12,15-pentaoxa-19,22-diazatetracosan-24-amido)benzyl (3-(((S)-4,11-diethyl-4-hydroxy-3,14-dioxo-3,4,12,14-tetrahydro-1H-pyrano[3′,4′:6,7]indolizino[1,2-b]quinolin-9-yl)oxy)propyl)carbamate], the “% of Payload Release” value is “++ (‘++’ indicates 26-50% release)”. With `CCc1c2c(nc3ccc(OCCCNC(=O)OCc4ccc(NC(=O)[C@H](CCCNC(N)=O)NC(=O)[C@@H](NC(=O)CCOCCOCCOCCOCCOCCOCCOCCOCCOCCN=[N+]=[N-])C(C)C)cc4)cc13)-c1cc3c(c(=O)n1C2)COC(=O)[C@]3(O)CC` [Example 16, 4-((32S,35S)-1-azido-32-isopropyl-30,33-dioxo-35-(3-ureidopropyl)-3,6,9,12,15,18,21,24,27-nonaoxa-31,34-diazahexatriacontan-36-amido)benzyl (3-(((S)-4,11-diethyl-4-hydroxy-3,14-dioxo-3,4,12,14-tetrahydro-1H-pyrano[3′,4′:6,7]indolizino[1,2-b]quinolin-9-yl)oxy)propyl)carbamate] the entry was “+++ (‘+++’ indicates 51-75% release)”; with `CCc1c2c(nc3ccc(OCCCNC(=O)OCc4ccc(NC(=O)[C@H](CCCNC(N)=O)NC(=O)[C@@H](NC(=O)CCOCCOCCOCCOCCOCCOCCOCCOCCOCCOCCOCCN=[N+]=[N-])C(C)C)cc4)cc13)-c1cc3c(c(=O)n1C2)COC(=O)[C@]3(O)CC` [Example 17, 4-((38S,41S)-1-azido-38-isopropyl-36,39-dioxo-41-(3-ureidopropyl)-3,6,9,12,15,18,21,24,27,30,33-undecaoxa-37,40-diazadotetracontan-42-amido)benzyl (3-(((S)-4,11-diethyl-4-hydroxy-3,14-dioxo-3,4,12,14-tetrahydro-1H-pyrano[3′,4′:6,7]indolizino[1,2-b]quinolin-9-yl)oxy)propyl)carbamate], “++ (‘++’ indicates 26-50% release)”.

On to `CCc1c2c(nc3ccc(OC(C(=O)N(C)C)c4ccc(NC(=O)[C@H](CCCNC(N)=O)NC(=O)[C@@H](NC(=O)CCOCCOCCOCCOCCOCCOCCOCCOCCOCCN=[N+]=[N-])C(C)C)cc4)cc13)-c1cc3c(c(=O)n1C2)COC(=O)[C@]3(O)CC` (stereo partly drawn) [Example 19, 1-azido-N-((2S)-1-(((2S)-1-((4-(1-(((S)-4,11-diethyl-4-hydroxy-3,14-dioxo-3,4,12,14-tetrahydro-1H-pyrano[3′,4′:6,7]indolizino[1,2-b]quinolin-9-yl)oxy)-2-(dimethylamino)-2-oxoethyl)phenyl)amino)-1-oxo-5-ureidopentan-2-yl)amino)-3-methyl-1-oxobutan-2-yl)-3,6,9,12,15,18,21,24,27-nonaoxatriacontan-30-amide], for which the “% of Payload Release” value was “+ (‘+’ indicates 5-25% release)”.
